{
  "source": "patent US8409577",
  "about": "(EMERGENT PRODUCT DEVELOPMENT SEATTLE, dated 2013)",
  "binders": {"B1": {"name": "2E12IgG-VHVL SMIP (Fc fusion)", "chain": "VQVQLKESGPGLVAPSQSLSITCTVSGFSLTGYGVNWVRQPPGKGLEWLGMIWGDGSTDYNSALKSRLSITKDNSKSQVFLKMNSLQTDDTARYYCARDGYSNFHYYVMDYWGQGTSVTVSSGGGGSGGGGSGGGGSGGGGSDIVLTQSPASLAVSLGQRATISCRASESVEYYVTSLMQWYQQKPGQPPKLLISAASNVESGVPARFSGSGSGTDFSLNIHPVEEDDIAMYFCQQSRKVPWTFGGGTKLEIKR", "notes": "also called 2e12 VHVL SMIP; 2e12 HL SMIP; not shown: IgG hinge-CH2-CH3 of the SMIP, not described"}},
  "target": "T1, CD20 (human, UniProt P11836 1-297)",
  "T1 construct": "whole, on cells; target on WIL2-S (WIL-2S), Ramos and BJAB cells; also called human CD20",
  "T1 sequence (looked up)": "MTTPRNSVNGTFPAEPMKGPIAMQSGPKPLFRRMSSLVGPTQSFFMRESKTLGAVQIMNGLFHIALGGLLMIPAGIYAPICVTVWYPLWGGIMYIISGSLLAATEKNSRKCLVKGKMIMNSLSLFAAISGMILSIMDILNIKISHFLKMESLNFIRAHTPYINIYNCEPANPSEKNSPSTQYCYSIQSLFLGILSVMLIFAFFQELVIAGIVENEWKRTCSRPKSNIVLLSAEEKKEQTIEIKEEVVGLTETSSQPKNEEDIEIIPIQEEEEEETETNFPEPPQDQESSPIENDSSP",
  "experiment": "flow cytometry: 2e12 HL SMIP on WIL-2S cells (CD20), then CD28mIgG 5 ug/ml and FITC anti-mouse 1:100",
  "experimental": "In this case, the fusion proteins were first bound to WIL-2S CD20 expressing cells, and binding was then detected with CD28mIgG (5 µg/ml) and FITC anti-mouse reagent at 1:100.",
  "data": [
    {"binder": "B1", "values": [
      {"measurement": "binding result", "value": "no binding (tested: about 5 ug/mL (read off the axis))"}
    ]}
  ]
}
